Data from patent publication US20050271676A1, “Inducing cellular immune responses to human immunodeficiency virus-1 using peptide and nucleic acid compositions” (Epimmune Inc., priority 1993, published 2005).
No end group written: not given here.

How the values were obtained:
[1] = target: HLA-A*2402 (Homo sapiens, UniProt P04439, D101N/D140Y/D185E/E176V/E190D/F33S/G103R/G107R/I119L/I121M/I306V/K335N/L105A/L180Q/L300P/N151K/N90K/Q86E/Q94H/R106L/R138H/R89G/T104I/T345S/V100E/W191G/Y123F); assay: purified HLA class I binding assay, A*2402
[2] = target: HLA-A*1101 (Homo sapiens, UniProt P04439, A114D/D185E/E176A/F33Y/L180Q/S129P/T187R); assay: purified HLA class I binding assay, A*1101
[3] = target: T1, HLA-A*0301 (Homo sapiens, UniProt P04439); assay: purified HLA class I binding assay, A*0301; conditions: for A*0301 binding information: Table IX
T1 construct: endogenous in cells; host or cells: GM3107

[4] = target: HLA-A*3101 (Homo sapiens, UniProt P04439, A270S/D185E/E176V/E277Q/F33T/G231S/G80R/H175R/I121M/I218V/I322F/K168Q/L300P/L318F/M331R/P217A/Q94H/R138Q/T323A/T345S/T97I/V358M); assay: purified HLA class I binding assay, A*3101; conditions: for A*3101 binding information: Table IX, unit not given
[5] = target: HLA-A*6801 (Homo sapiens, UniProt P04439, A269V/D185E/E176V/E277Q/E87N/F33Y/G231S/I121M/I166T/I218V/L180W/L300P/L318F/N151K/P208A/P217A/Q86R/R169H/T345S); assay: purified HLA class I binding assay, A*6801; conditions: for A*6801 binding information: Table IX, unit not given
[6] = target: HLA-A*0206 (Homo sapiens, UniProt P04439, D140Y/D185E/D98H/E176V/E277Q/F33Y/G131W/G231S/I119V/I121R/I166T/I218V/L300P/L318F/N151K/N90K/P208A/P217A/Q86G/Q94H/R138H/R169H/T345S); assay: purified HLA class I binding assay, A*0206; conditions: HIV A02 super motif peptides, Table VIII; unit not given
[7] = target: HLA-A*0203 (Homo sapiens, UniProt P04439, A173T/D140Y/D185E/D98H/E277Q/G131W/G231S/I119V/I121R/I166T/I218V/L180W/L300P/L318F/N151K/N90K/P208A/P217A/Q86G/Q94H/R138H/R169H/T345S); assay: purified HLA class I binding assay, A*0203; conditions: HIV A02 super motif peptides, Table VIII; unit not given
[8] = target: HLA-A*0202 (Homo sapiens, UniProt P04439, D140Y/D185E/D98H/E176V/E277Q/G131W/G231S/I119L/I121R/I166T/I218V/L180W/L300P/L318F/N151K/N90K/P208A/P217A/Q67R/Q86G/Q94H/R138H/R169H/T345S); assay: purified HLA class I binding assay, A*0202; conditions: HIV A02 super motif peptides, Table VIII; unit not given
[9] = target: HLA-A*6802 (Homo sapiens, UniProt P04439, A269V/D140Y/D185E/E176V/E277Q/E87N/F33Y/G231S/I121R/I166T/I218V/L180W/L300P/L318F/N151K/P208A/P217A/Q86R/R138H/R169H/S129P/T345S/V36M); assay: purified HLA class I binding assay, A*6802; conditions: HIV A02 super motif peptides, Table VIII; unit not given
[10] = target: HLA-A*0201 (Homo sapiens, UniProt P04439, D140Y/D185E/D98H/E176V/E277Q/G131W/G231S/I119V/I121R/I166T/I218V/L300P/L318F/N151K/N90K/P208A/P217A/Q86G/Q94H/R138H/R169H/T345S); assay: purified HLA class I binding assay, A*0201; conditions: HIV A02 super motif peptides, Table VIII; unit not given
[11] = target: T2, HLA-DRB1*1101 (DR5w11) (Homo sapiens, UniProt P01903+P01911, A100R/A169T/A87E/I96F/K41T/L162R/M171V/P40S/Q125H/Q178H/Q39Y/Q99D/R42S/S66Y/T262R/V115G/W38E); assay: biochemical; type: binding
T2 construct: endogenous in cells
T2 sequence (P01903 26-254, other chains not shown): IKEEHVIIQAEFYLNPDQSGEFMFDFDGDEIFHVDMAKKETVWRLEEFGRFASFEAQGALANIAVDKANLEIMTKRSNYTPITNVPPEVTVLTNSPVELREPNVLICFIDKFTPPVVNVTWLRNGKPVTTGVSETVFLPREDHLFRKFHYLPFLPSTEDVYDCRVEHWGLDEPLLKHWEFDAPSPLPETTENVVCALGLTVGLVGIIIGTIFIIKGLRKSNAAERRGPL

[12] = target: T3, HLA-DRB1*0701 (DR7) (Homo sapiens, UniProt P01903+P01911, A100R/A102G/A103Q/D57E/D86V/E43K/F76Y/K127E/L162R/M171V/P40G/Q125H/Q99D/R33Q/R42Y/R54Q/S133A/S66F/T210M/V115G/Y107V/Y59L/Y89S); assay: biochemical; type: binding
T3 construct: endogenous in cells; host or cells: Pitout

[13] = target: T4, HLA-DRB5*0101 (DR2w2β2) (Homo sapiens, UniProt P01903+Q30154); assay: biochemical; type: binding
T4 construct: expressed in transfected cells

[14] = target: T5, HLA-DRB1*0401 (DR4w4) (Homo sapiens, UniProt P01903+P01911, A100K/A169T/F76Y/I96L/K127E/L162R/M171V/N62H/P40V/Q125Y/R42H/S133A/S149N/S66Y/V115G/V209L/W38E); assay: purified HLA class II binding assay, DRB1*0401 (DR4w4); conditions: HIV DR super motif peptides; unit not given
T5 construct: endogenous in cells; host or cells: Preiss
T5 sequence (P01903 26-254 partner, other chains not shown): as the sequence (P01903 26-254, other chains not shown) above

[15] = HIV A03 supermotif peptides, Table IX, unit not given
[16] = HIV A03 supermotif peptides, unit not given
[17] = HIV A24 motif peptides, purified HLA-A24 molecule, unit not given
[18] = HIV A24 motif peptides, binding value for purified HLA-A24 molecule, A*2401, unit not given
[19] = HIV A03 motif peptides, Table XVI, unit not given
[20] = Table IX, HIV A03 super motif peptides, binding value, unit not given
[21] = HIV A03 super motif peptides, binding value, unit not given
[22] = HIV A03 super motif peptides, binding value

Sequence: PYNEWTLEL [Peptide 25.0128]
- IC50 [1]: 86 nM

Sequence: PYNLWILEL
- A*2401 (binding information) ([1]; HIV A24 supermotif peptides, A*2401, unit not given, so probably a relative binding value): 0.1400

Sequence: QARYLAVER
- A*1101 (binding information) [2, 15]: 0.0003
- A*0301 binding information [3, 16]: 0.0009
- A*3101 binding information ([4]; HIV A03 supermotif peptides): 0.0320
- A*6801 binding information ([5]; HIV A03 supermotif peptides): 0.0007

Sequence: QLLFIIIFRI
- A*0206 binding [6]: 0.0023
- A*0203 binding [7]: 0.0004
- A*0202 binding [8]: 0.0002
- A*6802 binding [9]: 0.0840
- A*0201 binding [10]: 0.0530

Sequence: QMAVFIIINF
- A*2401 (binding information) [1, 17]: 0.0190
- A*2401 (binding information) ([1]; HIV A24 supermotif peptides, Table X, A*2401, unit not given): 0.0190

Sequence: QMVIIQAISPR
- A*1101 (binding information) [2, 15]: 0.0010
- A0301 (binding information) ([3]; HIV A03 motif peptides, Table XVI, binding value unit not given): 0.0260
- A*0301 binding information [3, 16]: 0.0260
- A*3101 binding information ([4]; HIV A03 supermotif peptides): 0.0740
- A*6801 binding information ([5]; HIV A03 supermotif peptides): 0.0430

Sequence: RFAVPGLL
- A*2401 (binding information) [1, 18]: 0.0100

Sequence: TLFCASDAK [1273.06]
- IC50 [4]: 10600 nM
- IC50 [5]: 191 nM

Sequence: TVQCTIIGIK
- A*1101 (binding information) [2, 15]: 0.0460
- A0301 (binding information) [3, 19]: 0.0021
- A*0301 binding information [3, 16]: 0.0021
- A*3101 binding information ([4]; HIV A03 supermotif peptides): 0.0042
- A*6801 binding information ([5]; HIV A03 supermotif peptides): 0.0190

Sequence: TVQCTIIGIR
- A*1101 (binding information) [2, 15]: 0.0008
- A*1101 (binding information) ([2]; Table XVII, HIV A11 motif peptides, binding value for purified HLA-A*1101, unit not given): 0.0008
- A0301 (binding information) [3, 19]: 0.0008
- A*0301 binding information [3, 16]: 0.0008
- A*3101 binding information ([4]; HIV A03 supermotif peptides): 0.0880
- A*6801 binding information ([5]; HIV A03 supermotif peptides): 0.0120

Sequence: VIFMFSALSEGATPQ
- DR5w11 binding [11]: −0.0010
- DR7 binding [12]: −0.0007
- DR2w2β2 binding [13]: −0.0014
- DR4w4 binding [14]: 0.0058

Sequence: VTVYYGVPVWKEATI
- DR5w11 binding [11]: 0.0021
- DR7 binding [12]: 0.0160
- DR2w2β2 binding [13]: 0.0270
- DR4w4 binding [14]: 0.0071

Sequence: VWKEATITLF
- A*2401 (binding information) [1, 18]: 0.2700

Sequence: WMGYELIIPDK
- A*1101 (binding information) [2, 20]: 0.0004
- A*1101 (binding information) ([2]; Table XVII, HIV A11 motif peptides, binding value A*1101, unit not given): 0.0004
- A*0301 binding information [3, 21]: 0.0005
- A*3101 binding information [4, 22]: 0.0009
- A*6801 binding information [5, 22]: 0.0003

Sequence: YLAWVPAIIK
- A*1101 (binding information) [2, 20]: 0.0570
- A*1101 (HIV A11 Motif Peptides with Binding Information) ([2]; binding value to purified HLA-A*1101 in Table XVII, unit not given): 0.0570
- A0301 binding ([3]; HIV A03 motif peptides, Table XVI, column A0301, unit not given): 0.0770
- A*0301 binding information [3, 21]: 0.0770
- A*3101 binding information [4, 22]: 0.0550
- A*6801 binding information [5, 22]: 4.0000

Sequence: YWQATWIPE
- A*2401 (binding information) [1, 17]: 0.0660
- A*2401 (binding information) ([1]; HIV A24 supermotif peptides, binding value printed without unit in Table X): 0.0660
